The values below are quoted from earlier work in article PMC3515962.

The target of this series is IL-2 receptor (Mus musculus) (UniProt P01590). In words: radioligand binding.
UniProt P01590, sequence (P01590 22-236, chain 1 of 3): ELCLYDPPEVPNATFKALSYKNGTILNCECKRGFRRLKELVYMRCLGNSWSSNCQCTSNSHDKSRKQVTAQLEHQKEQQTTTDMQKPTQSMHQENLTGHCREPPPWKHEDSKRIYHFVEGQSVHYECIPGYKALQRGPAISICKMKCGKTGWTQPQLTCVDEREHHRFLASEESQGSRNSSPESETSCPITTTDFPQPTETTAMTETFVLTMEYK
UniProt P01590, sequence (P16297 27-240, chain 2 of 3, further chain): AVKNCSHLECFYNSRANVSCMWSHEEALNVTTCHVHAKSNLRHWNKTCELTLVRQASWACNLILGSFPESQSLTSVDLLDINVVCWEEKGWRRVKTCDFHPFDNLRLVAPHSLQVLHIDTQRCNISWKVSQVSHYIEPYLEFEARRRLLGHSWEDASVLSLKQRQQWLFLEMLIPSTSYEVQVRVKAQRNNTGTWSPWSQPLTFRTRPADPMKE
UniProt P01590, sequence (P34902 23-263, chain 3 of 3, further chain): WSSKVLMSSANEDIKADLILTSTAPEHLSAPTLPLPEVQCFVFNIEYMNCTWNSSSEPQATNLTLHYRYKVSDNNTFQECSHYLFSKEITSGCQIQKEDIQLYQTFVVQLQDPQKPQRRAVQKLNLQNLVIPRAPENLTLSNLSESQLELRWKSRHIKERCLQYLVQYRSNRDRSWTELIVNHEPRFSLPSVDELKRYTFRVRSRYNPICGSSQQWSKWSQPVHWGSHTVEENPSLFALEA

For the substance TCGF (IL-2) (from UniProt P60568), the Kd (usually a measure of binding affinity in units of concentration) was 0.02 nM.
